Measured values as given in the supplement of paper PMC9233669.
Fewer inactive variants are shown than the library holds.

Assays:
[1] = test system: biotinyl-Phe-oxazolone; assay: self-aminoacylation, catalytic enhancement (BFO) (fold over background); higher = more active; k-Seq, kA / k0A0; sequences stand for … in GGGAAUGGAUCCACAUCUACGAAUUC…UUCACUGCAGACUUGACGAAGCUG
Procedure, shortened: (§1)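 The uncatalyzed rate is the low-activity peak of a bimodal Gaussian fit, and catalytic enhancement is median kA divided by it. The kA values came from pseudo-first-order fits, with 1000 bootstraps, of per-sequence fraction reacted measured by streptavidin capture, triplicate qPCR and Illumina sequencing. Mutagenized RNA pools with a 21-nt variable region (0.43 μM) were reacted with each biotinyl-aminoacyl-oxazolone at 2–1250 μM in 50 μL HEPES/NaCl/KCl/MgCl2/CaCl2 buffer with 5% acetonitrile, pH 6.9–7.0, for 90 minutes at room temperature.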

[2] = test system: biotinyl-Ile-oxazolone; assay: self-aminoacylation, catalytic enhancement (BIO) (fold over background); higher = more active; k-Seq, kA / k0A0; sequences stand for … in GGGAAUGGAUCCACAUCUACGAAUUC…UUCACUGCAGACUUGACGAAGCUG
Procedure, shortened: as §1

[3] = test system: biotinyl-Met-oxazolone; assay: self-aminoacylation, catalytic enhancement (BMO) (fold over background); higher = more active; k-Seq, kA / k0A0; sequences stand for … in GGGAAUGGAUCCACAUCUACGAAUUC…UUCACUGCAGACUUGACGAAGCUG
Procedure, shortened: as §1

[4] = test system: biotinyl-Val-oxazolone; assay: self-aminoacylation, catalytic enhancement (BVO) (fold over background); higher = more active; k-Seq, kA / k0A0; sequences stand for … in GGGAAUGGAUCCACAUCUACGAAUUC…UUCACUGCAGACUUGACGAAGCUG
Procedure, shortened: as §1

[5] = test system: biotinyl-Leu-oxazolone; assay: self-aminoacylation, catalytic enhancement (BLO) (fold over background); higher = more active; k-Seq, kA / k0A0; sequences stand for … in GGGAAUGGAUCCACAUCUACGAAUUC…UUCACUGCAGACUUGACGAAGCUG
Procedure, shortened: as §1

[6] = test system: biotinyl-Trp-oxazolone; assay: self-aminoacylation, catalytic enhancement (BWO) (fold over background); higher = more active; k-Seq, kA / k0A0; sequences stand for … in GGGAAUGGAUCCACAUCUACGAAUUC…UUCACUGCAGACUUGACGAAGCUG
Procedure, shortened: as §1

| Sequence | self-aminoacylation [1] | self-aminoacylation [2] | self-aminoacylation [3] | self-aminoacylation [4] | self-aminoacylation [5] | self-aminoacylation [6] |
| --- | --- | --- | --- | --- | --- | --- |
| AUUACCCUGGUCUUAGAGUGA [Fam2.1 aminoacylation ribozyme variant] | 39.5 | 4.28 | 7.82 | 4.31 | 7.33 | 9.81 |
| AUUACCCUGGUCUUCGAGUGA [Fam2.1 aminoacylation ribozyme variant] | 26.4 | 3.09 | 5.36 | 3.3 | 5.52 | 6.84 |
| AUUACCCUGGUCUUCGAUUGA [Fam2.1 aminoacylation ribozyme variant] | 0.383 | 0.769 | 0.723 | 0.779 | 0.67 | 0.41 |
| AUUACCCUGGUCUUCGGGUGA [Fam2.1 aminoacylation ribozyme variant] | 48.9 | 4.68 | 8.38 | 5.66 | 9.51 | 9.66 |
| AUUACCCUGGUCUUCUAGUGA [Fam2.1 aminoacylation ribozyme variant] | 23.6 | 2.92 | 5.28 | 3.54 | 5.65 | 7.45 |
| AUUACCCUGGUGAUAGAGUGA [Fam2.1 aminoacylation ribozyme variant] | 53.4 | 3.75 | 9.04 | 3.62 | 8.59 | 8.54 |
| AUUACCCUGGUGAUCCAGUGA [Fam2.1 aminoacylation ribozyme variant] | 60.7 | 4.33 | 9.84 | 4.65 | 9.64 | 12.4 |
| AUUACCCUGGUGAUCGAGAGA [Fam2.1 aminoacylation ribozyme variant] | 0.65 | 1.33 | 1.24 | 0.92 | 0.908 | 0.417 |
| AUUACCCUGGUGAUCGAGUGU [Fam2.1 aminoacylation ribozyme variant] | 5.19 | 1.51 | 2.12 | 1.57 | 2.31 | 2.96 |
| AUUACCCUGGUGAUCGAUUGA [Fam2.1 aminoacylation ribozyme variant] | 0.845 | 1.03 | 1.39 | 0.859 | 1.09 | 0.834 |
| AUUACCCUGGUGGUCGAGUGA [Fam2.1 aminoacylation ribozyme variant] | 12.8 | 1.47 | 2.28 | 1.61 | 1.95 | 1.83 |
| AUUACCCUGGUUAUCGAGGGA [Fam2.1 aminoacylation ribozyme variant] | 1.16 | 1.55 | 1.4 | 1.16 | 0.955 | 1.79 |
| AUUACCCUGGUUAUCUAGUGA [Fam2.1 aminoacylation ribozyme variant] | 93.5 | 5.78 | 14.4 | 6.4 | 15.3 | 17.6 |
| AUUACCCUGUACAUCGAGUGA [Fam2.1 aminoacylation ribozyme variant] | 71.1 | 5.18 | 12.5 | 6.19 | 11.6 | 13.2 |
| AUUACCCUGUCCAUCGAGUGA [Fam2.1 aminoacylation ribozyme variant] | 70.4 | 5.63 | 10.6 | 5.38 | 11.3 | 14.8 |
| AUUACCCUGUUCAUCGAGUUA [Fam2.1 aminoacylation ribozyme variant] | 0.909 | 1.19 | 1.13 | 1.12 | 1.12 | 0.616 |
| AUUACCCUGUUCAUCGUGUGA [Fam2.1 aminoacylation ribozyme variant] | 43.7 | 3.1 | 6.29 | 3.04 | 6.24 | 8.71 |
| AUUACCCUGUUCAUGGAGUGA [Fam2.1 aminoacylation ribozyme variant] | 62.8 | 5.12 | 11.1 | 5.28 | 11.4 | 11.8 |
| AUUACCCUGUUCAUUGAGUGA [Fam2.1 aminoacylation ribozyme variant] | 83.6 | 5.73 | 13.8 | 5.4 | 12.7 | 16.3 |
| AUUACCCUUCUCAUCGAGUGA [Fam2.1 aminoacylation ribozyme variant] | 30.8 | 3.51 | 6.6 | 3.65 | 6.53 | 9.57 |
| AUUACCCUUGCCAUCGAGUGA [Fam2.1 aminoacylation ribozyme variant] | 35.2 | 3.09 | 6.18 | 3.18 | 5.63 | 7.05 |
| AUUACCCUUGUCAUCGAAUGA [Fam2.1 aminoacylation ribozyme variant] | 0.805 | 0.946 | 0.839 | 1.09 | 0.89 | 0.552 |
| AUUACCCUUGUCAUCGCGUGA [Fam2.1 aminoacylation ribozyme variant] | 85.5 | 5.26 | 10.7 | 5.9 | 13.6 | 14.3 |
| AUUACCCUUGUCAUUGAGUGA [Fam2.1 aminoacylation ribozyme variant] | 34 | 4.11 | 8.1 | 4.34 | 8.5 | 10.6 |
| AUUACCGUAGUCAUCGAGUGA [Fam2.1 aminoacylation ribozyme variant] | 26 | 2.94 | 4.79 | 3.22 | 5.83 | 7.23 |
| AUUACCGUGGUCACCGAGUGA [Fam2.1 aminoacylation ribozyme variant] | 9.08 | 2.39 | 3.87 | 2.83 | 3.65 | 2.95 |

| Sequence | self-aminoacylation [1] | self-aminoacylation [2] | self-aminoacylation [3] | self-aminoacylation [4] | self-aminoacylation [5] | self-aminoacylation [6] |
| --- | --- | --- | --- | --- | --- | --- |
| AUUACCGUGGUCAUAGAGUGA [Fam2.1 aminoacylation ribozyme variant] | 35.7 | 3.67 | 7.8 | 3.97 | 6.95 | 7.99 |
| AUUACCGUGGUCAUCGCGUGA [Fam2.1 aminoacylation ribozyme variant] | 140 | 8.94 | 17.7 | 11 | 21.5 | 22.2 |
| AUUACCGUGGUCAUCUAGUGA [Fam2.1 aminoacylation ribozyme variant] | 31.2 | 3.29 | 6.98 | 3.82 | 6.26 | 7.82 |
| AUUACCGUGGUCAUUGAGUGA [Fam2.1 aminoacylation ribozyme variant] | 28.2 | 3.37 | 5.36 | 3.21 | 6 | 7.1 |
| AUUACCUUAGUCAUCGAGUGA [Fam2.1 aminoacylation ribozyme variant] | 14.8 | 2.71 | 4.41 | 2.59 | 4.62 | 5.48 |
| AUUACCUUGGGCAUCGAGUGA [Fam2.1 aminoacylation ribozyme variant] | 17.4 | 2.87 | 5.33 | 2.91 | 5.27 | 6.65 |
| AUUACCUUGGUCAUAGAGUGA [Fam2.1 aminoacylation ribozyme variant] | 25.4 | 3.58 | 6.82 | 3.69 | 7.24 | 9.04 |
| AUUACCUUGGUCAUCAAGUGA [Fam2.1 aminoacylation ribozyme variant] | 3.79 | 1.97 | 3.32 | 1.92 | 3.54 | 4.02 |
| AUUACCUUGGUCAUCGAGUGU [Fam2.1 aminoacylation ribozyme variant] | 3.39 | 2.19 | 3.47 | 2.37 | 3.59 | 3.8 |
| AUUACCUUGGUCAUCGAUUGA [Fam2.1 aminoacylation ribozyme variant] | 0.71 | 0.907 | 0.916 | 0.824 | 0.855 | 0.601 |
| AUUACCUUGGUCAUCGUGUGA [Fam2.1 aminoacylation ribozyme variant] | 16.2 | 1.53 | 2.55 | 1.57 | 2.71 | 3.57 |
| AUUACCUUGGUGAUCGAGUGA [Fam2.1 aminoacylation ribozyme variant] | 19.7 | 2.25 | 4.39 | 2.32 | 4.39 | 5.81 |
| AUUACCUUGUUCAUCGAGUGA [Fam2.1 aminoacylation ribozyme variant] | 26.1 | 3.4 | 6.95 | 3.95 | 6.6 | 8.47 |
| AUUACGCUGAUCAUCGAGUGA [Fam2.1 aminoacylation ribozyme variant] | 15 | 3.16 | 5.61 | 3.36 | 5.8 | 6.11 |
| AUUACGCUGGUCAACGAGUGA [Fam2.1 aminoacylation ribozyme variant] | 5.51 | 2.42 | 3.33 | 2.71 | 3 | 3.71 |
| AUUACGCUGGUCAGCGAGUGA [Fam2.1 aminoacylation ribozyme variant] | 21.2 | 3.34 | 4.57 | 2.4 | 4.3 | 4.4 |
| AUUACGCUGGUCAUCGAGUUA [Fam2.1 aminoacylation ribozyme variant] | 0.893 | 1.28 | 1.54 | 1.43 | 1.41 | 0.917 |
| AUUACGCUGGUCAUCGAUUGA [Fam2.1 aminoacylation ribozyme variant] | 0.858 | 1.18 | 1.29 | 1.18 | 1.24 | 1.41 |
| AUUACGCUGGUCGUCGAGUGA [Fam2.1 aminoacylation ribozyme variant] | 4.94 | 1.37 | 1.25 | 1.36 | 1.49 | 1.37 |
| AUUACGUUGGUCAUCGAGUGA [Fam2.1 aminoacylation ribozyme variant] | 11.7 | 3.1 | 4.23 | 3.18 | 4.86 | 5.9 |
| AUUACUCUGCUCAUCGAGUGA [Fam2.1 aminoacylation ribozyme variant] | 2.12 | 1.29 | 1.58 | 1.3 | 1.57 | 1.92 |
| AUUACUCUGGACAUCGAGUGA [Fam2.1 aminoacylation ribozyme variant] | 30.9 | 2.93 | 5.55 | 2.83 | 6.1 | 8.33 |
| AUUACUCUGGUCACCGAGUGA [Fam2.1 aminoacylation ribozyme variant] | 44.4 | 3.28 | 7.28 | 3.27 | 8.45 | 9.08 |
| AUUACUCUGGUCAUCGAGUAA [Fam2.1 aminoacylation ribozyme variant] | 1.42 | 2.21 | 2.23 | 1.79 | 1.92 | 2.27 |
| AUUACUCUGGUCAUCUAGUGA [Fam2.1 aminoacylation ribozyme variant] | 42.8 | 4.55 | 9.64 | 4.34 | 9.74 | 11.4 |
